Results published in paper PMC4877808.

B1: haptoglobin (free-Hp) (ligand)
chain 1: VETGSEATADSCPKAPEIANSHVEYSVRYQCDKYYKLHAGNGVYTFNNKQWINKDIGQQLPECEEDDSCPEPPKIENGYVEYLVRYQCKPYYTLRTCGDGVYTFNSKKQWINKNIGQKLPECEAVCGKPKHPVDQVQ
chain 2: IIGGSLDAKGSFPWQAKMVSQHNLISGATLINERWLLTTAKNLYLGHSSDKKAKDITPTLRLYVGKNQLVEVEKVVLHPDHSKVDIGLIKLRQKVPVNDKVMPICLPSKDYVKVGRVGYVSGWGRNENFNFTEHLKYVMLPVADQDKCVKHYEGVDAPKNKTAKSPVGVQPILNENTFCVGLSKYQDDTCYGDAGSAFVVHDKEDDTWYAAGILSFDKSCAVAEYGVYVKVTSILDWVRKTIANN

Assays:
[1] = molecular target: His-tagged recombinant TbHpHbR (T. brucei haptoglobin-hemoglobin complex receptor, without the signal sequence) (Trypanosoma brucei brucei GUTat 3.1); assay: SPR; quantitative: Biacore X, His-tagged receptor immobilised on CM5 (rTcHpHbR 800 RU, rTbHpHbR 480 RU), 30 μl/min, free-Hb and free-Hp 0.0001-10 μM; Kd = dissociation rate constant / association rate constant
[2] = molecular target: His-tagged recombinant TcHpHbR (T. congolense haptoglobin-hemoglobin complex receptor, without the signal sequence) (Trypanosoma congolense IL3000); assay: as above

Row | Molecule | Kd [1] [nM] | Kd [2] [nM]
1 | bovine hemoglobin (free-Hb), from bovine erythrocytes (from UniProt P01966 1-142; P02070 1-145) (ligand) | 5300 | 20.5
2 | B1 | 1800 | 220
